Measured values: the supplement of paper PMC11246515
± gives the standard deviation of the averaged measurements.

Assay: total protein half-life in vivo (active degradation + dilution); higher = more stable protein
[1] = E. coli NCM3722 delta-clpP delta-lon delta-hslV, growth: N-lim chemostat, doubling time 6 h
[2] = E. coli NCM3722 delta-clpP, growth: N-lim chemostat, doubling time 6 h
[3] = E. coli NCM3722 delta-hslV, growth: N-lim chemostat, doubling time 6 h
[4] = E. coli NCM3722 delta-lon, growth: N-lim chemostat, doubling time 6 h
[5] = E. coli NCM3722 delta-smpB, growth: N-lim chemostat, doubling time 6 h
[6] = wild type E. coli NCM3722, growth: C-lim chemostat, doubling time 6 h
[7] = wild type E. coli NCM3722, growth: N-lim chemostat, doubling time 6 h
[8] = wild type E. coli NCM3722, growth: N-lim chemostat, doubling time 12 h
[9] = wild type E. coli NCM3722, growth: P-lim chemostat, doubling time 6 h
[10] = wild type E. coli NCM3722, growth: P-lim chemostat, doubling time 12 h
[11] = wild type E. coli NCM3722, growth: C-lim chemostat, doubling time 3 h
[12] = wild type E. coli NCM3722, growth: C-lim chemostat, doubling time 12 h

MTDNPNKKTFWDKVHLDPTMLLILLALLVYSALVIWSASGQDIGMMERKIGQIAMGLVIMVVMAQIPPRVYEGWAPYLYIICIILLVAVDAFGAISKGAQRWLDLGIVRFQPSEIAKIAVPLMVARFINRDVCPPSLKNTGIALVLIFMPTLLVAAQPDLGTSILVALSGLFVLFLSGLSWRLIGVAVVLVAAFIPILWFFLMHDYQRQRVMMLLDPESDPLGAGYHIIQSKIAIGSGGLRGKGWLHGTQSQLEFLPERHTDFIFAVLAEELGLVGILILLALYILLIMRGLWIAARAQTTFGRVMAGGLMLILFVYVFVNIGMVSGILPVVGVPLPLVSYGGSALIVLMAGFGIVMSIHTHRKMLSKSV [P0ABG7]
total protein half-life in vivo [1]: 6.32 ± 0.84 h
total protein half-life in vivo [2]: 6.24 ± 0.34 h
total protein half-life in vivo [3]: 5.73 ± 0.093 h
total protein half-life in vivo [4]: 5.59 ± 0.48 h
total protein half-life in vivo [5]: 5.99 ± 0.59 h
total protein half-life in vivo [6]: 5.94 ± 0.34 h
total protein half-life in vivo [7]: 6.47 ± 0.14 h
total protein half-life in vivo [8]: 11.5 ± 1.2 h
total protein half-life in vivo [9]: 5.99 ± 0.21 h
total protein half-life in vivo [10]: 11.9 ± 0.4 h

MKQPAPVYQRIAGHQWRHIWLSGDIHGCLEQLRRKLWHCRFDPWRDLLISVGDVIDRGPQSLRCLQLLEQHWVCAVRGNHEQMAMDALASQQMSLWLMNGGDWFIALADNQQKQAKTALEKCQHLPFILEVHSRTGKHVIAHADYPDDVYEWQKDVDLHQVLWSRSRLGERQKGQGITGADHFWFGHTPLRHRVDIGNLHYIDTGAVFGGELTLVQLQ
total protein half-life in vivo [10]: 5.48 h

MDNRGEFLNNVAQALGRPLRLEPQAEDAPLNNYANERLTQLNQQQRCDAFIQFASDVMLTRCELTSEAKAAEAAIRLCKELGDQSVVISGDTRLEELGISERLQQECNAVVWDPAKGAENISQAEQAKVGVVYAEYGLTESGGVVLFSAAERGRSLSLLPEYSLFILRKSTILPRVAQLAEKLHQKAQAGERMPSCINIISGPSSTADIELIKVVGVHGPVKAVYLIIEDC
total protein half-life in vivo [1]: 4.84 ± 0.23 h
total protein half-life in vivo [2]: 1.46 h
total protein half-life in vivo [3]: 1.64 h
total protein half-life in vivo [4]: 2.67 h
total protein half-life in vivo [5]: 1.78 ± 0.043 h
total protein half-life in vivo [11]: 2.33 ± 0.14 h
total protein half-life in vivo [6]: 3.75 ± 0.5 h
total protein half-life in vivo [12]: 5.23 ± 0.45 h
total protein half-life in vivo [8]: 2.49 h
total protein half-life in vivo [9]: 2.13 h

MLSNDILRSVRYILKANNNDLVRILALGNVEATAEQIAVWLRKEDEEGFQRCPDIVLSSFLNGLIYEKRGKDESAPALEPERRINNNIVLKKLRIAFSLKTDDILAILTEQQFRVSMPEITAMMRAPDHKNFRECGDQFLRYFLRGLAARQHVKKG
total protein half-life in vivo [1]: 5.25 ± 0.12 h
total protein half-life in vivo [4]: 6.64 ± 0.089 h
total protein half-life in vivo [5]: 5.21 ± 0.48 h
total protein half-life in vivo [11]: 3.21 ± 0.69 h
total protein half-life in vivo [6]: 6.3 ± 0.61 h
total protein half-life in vivo [12]: 11.7 ± 1 h
total protein half-life in vivo [7]: 5.08 ± 0.49 h
total protein half-life in vivo [8]: 8.7 ± 0.92 h
total protein half-life in vivo [9]: 4.99 ± 0.15 h

MELHCPQCQHVLDQDNGHARCRSCGEFIEMKALCPDCHQPLQVLKACGAVDYFCQHGHGLISKKRVEFVLA
total protein half-life in vivo [1]: 5.52 ± 2.3 h
total protein half-life in vivo [2]: 4.63 h
total protein half-life in vivo [12]: 4.37 h
total protein half-life in vivo [7]: 6.43 h
total protein half-life in vivo [8]: 5.69 h
total protein half-life in vivo [10]: > 16 h

MSESLHLTRNGSILEITLDRPKANAIDAKTSFEMGEVFLNFRDDPQLRVAIITGAGEKFFSAGWDLKAAAEGEAPDADFGPGGFAGLTEIFNLDKPVIAAVNGYAFGGGFELALAADFIVCADNASFALPEAKLGIVPDSGGVLRLPKILPPAIVNEMVMTGRRMGAEEALRWGIVNRVVSQAELMDNARELAQQLVNSAPLAIAALKEIYRTTSEMPVEEAYRYIRSGVLKHYPSVLHSEDAIEGPLAFAEKRDPVWKGR
total protein half-life in vivo [5]: 3.5 h
total protein half-life in vivo [11]: 2.96 ± 0.038 h
total protein half-life in vivo [6]: 4.96 ± 0.18 h
total protein half-life in vivo [12]: 8.84 ± 0.32 h
total protein half-life in vivo [8]: 5.66 h
total protein half-life in vivo [9]: 5.25 ± 0.44 h
total protein half-life in vivo [10]: 10.5 ± 0.97 h

MIRSMTAYARREIKGEWGSATWEMRSVNQRYLETYFRLPEQFRSLEPVVRERIRSRLTRGKVECTLRYEPDVSAQGELILNEKLAKQLVTAANWVKMQSDEGEINPVDILRWPGVMAAQEQDLDAIAAEILAALDGTLDDFIVARETEGQALKALIEQRLEGVTAEVVKVRSHMPEILQWQRERLVAKLEDAQVQLENNRLEQELVLLAQRIDVAEELDRLEAHVKETYNILKKKEAVGRRLDFMMQEFNRESNTLASKSINAEVTNSAIELKVLIEQMREQIQNIE
total protein half-life in vivo [1]: 4.67 ± 0.13 h
total protein half-life in vivo [2]: 4.26 ± 0.17 h
total protein half-life in vivo [3]: 4.15 ± 0.007 h
total protein half-life in vivo [4]: 4.46 ± 0.36 h
total protein half-life in vivo [5]: 4.24 ± 0.048 h
total protein half-life in vivo [11]: 3.203 ± 0.032 h
total protein half-life in vivo [6]: 5.69 ± 0.37 h
total protein half-life in vivo [12]: 9.42 ± 0.49 h
total protein half-life in vivo [7]: 4.21 ± 0.05 h
total protein half-life in vivo [8]: 6.64 ± 0.2 h
total protein half-life in vivo [9]: 5.83 ± 0.37 h
total protein half-life in vivo [10]: 12.9 ± 1.8 h

MTDKMQSLALAPVGNLDSYIRAANAWPMLSADEERALAEKLHYHGDLEAAKTLILSHLRFVVHIARNYAGYGLPQADLIQEGNIGLMKAVRRFNPEVGVRLVSFAVHWIKAEIHEYVLRNWRIVKVATTKAQRKLFFNLRKTKQRLGWFNQDEVEMVARELGVTSKDVREMESRMAAQDMTFDLSSDDDSDSQPMAPVLYLQDKSSNFADGIEDDNWEEQAANRLTDAMQGLDERSQDIIRARWLDEDNKSTLQELADRYGVSAERVRQLEKNAMKKLRAAIEA [P0AGB3]
total protein half-life in vivo [1]: 0.775 ± 0.044 h
total protein half-life in vivo [10]: 0.858 h

MKKLQIAVGIIRNENNEIFITRRAADAHMANKLEFPGGKIEMGETPEQAVVRELQEEVGITPQHFSLFEKLEYEFPDRHITLWFWLVERWEGEPWGKEGQPGEWMSLVGLNADDFPPANEPVIAKLKRL
total protein half-life in vivo [1]: 4.64 ± 0.53 h
total protein half-life in vivo [3]: 4.58 ± 0.57 h
total protein half-life in vivo [4]: 5.1 h
total protein half-life in vivo [5]: 5.16 ± 1.3 h
total protein half-life in vivo [11]: 3.35 ± 0.21 h
total protein half-life in vivo [6]: 5.04 ± 0.078 h
total protein half-life in vivo [12]: 9.03 ± 0.32 h
total protein half-life in vivo [7]: 4.16 ± 0.41 h
total protein half-life in vivo [8]: 6.87 ± 0.51 h
total protein half-life in vivo [9]: 4.48 ± 0.6 h
total protein half-life in vivo [10]: 11 ± 1.5 h

MRYIVALTGGIGSGKSTVANAFADLGINVIDADIIARQVVEPGAPALHAIADHFGANMIAADGTLQRRALRERIFANPEEKNWLNALLHPLIQQETQHQIQQATSPYVLWVVPLLVENSLYKKANRVLVVDVSPETQLKRTMQRDDVTREHVEQILAAQATREARLAVADDVIDNNGAPDAIASDVARLHAHYLQLASQFVSQEKP [P0A6I9]
total protein half-life in vivo [1]: 4.61 ± 0.82 h
total protein half-life in vivo [2]: 4.08 ± 0.2 h
total protein half-life in vivo [3]: 4.04 ± 0.14 h
total protein half-life in vivo [4]: 4.32 ± 0.1 h
total protein half-life in vivo [5]: 4.78 ± 0.96 h
total protein half-life in vivo [11]: 3.06 ± 0.28 h
total protein half-life in vivo [6]: 4.83 ± 0.92 h
total protein half-life in vivo [12]: 9.87 ± 0.29 h
total protein half-life in vivo [7]: 4.18 ± 0.04 h
total protein half-life in vivo [8]: 6.95 ± 0.2 h
total protein half-life in vivo [9]: 5.34 ± 0.12 h
total protein half-life in vivo [10]: 11.1 ± 0.22 h
